The values below come from paper PMC10212922, “A blocking monoclonal antibody reveals dimerization of intracellular domains of ALK2 associated with genetic disorders” (Nature Communications, 2023).

For test [1], the target named is V5-tagged mouse ALK2 (mouse, UniProt P37172). The test is described as follows: cell-based or functional assay.
Test [2] concerns the target T1, His-tagged and Fc-tagged mouse ALK2 protein (Sino Biological) (mouse, UniProt P37172 21-123).
T1 chain: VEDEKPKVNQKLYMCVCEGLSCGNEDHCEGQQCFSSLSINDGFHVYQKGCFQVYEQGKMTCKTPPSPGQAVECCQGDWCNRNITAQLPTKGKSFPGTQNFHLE
The test is described as follows: SPR.

Test [3] addresses T2, His-tagged and Fc-tagged human ALK2 protein (Sino Biological) (human, UniProt Q04771 21-123).
T2 chain: T1 chain with V1M, Q10P
As to the kind of experiment: SPR.

Test [4] concerns the target T3, His-tagged and Fc-tagged human ALK2 protein (Sino Biological) (Homo sapiens, UniProt Q04771).
T3 construct: activin receptor-like kinase 2 (ALK2), human; source: bought: Sino Biological Inc
As to the kind of experiment: SPR; BIAcore T200; anti-histidine antibody immobilised on a CM5 chip, His- and Fc-tagged ALK2 (10 μg/ml) captured; antibody 0.195-50 nM injected, single-cycle kinetics, 300 s association, 1800 s dissociation, 30 μl/min; bivalent analyte model; the methods speak of avidity. The settings on record: both partners purified. (In general: In SPR one partner is held on a chip, and binding of the other changes the refractive index at the surface.)

For test [5], the target named is T4, His-tagged and Fc-tagged mouse ALK2 protein (Sino Biological) (Mus musculus, UniProt P37172).
T4 construct: activin receptor-like kinase 2 (ALK2), mouse, extracellular domain; also called 6x His-tagged mouse ALK2 ECD fused to human IgG Fc; source: bought: Sino Biological Inc
The test is described as above. Particulars: both partners purified.

Positions count from the first letter of the chain named.

V5-tagged mouse ALK2, sequence (P37172 21-509): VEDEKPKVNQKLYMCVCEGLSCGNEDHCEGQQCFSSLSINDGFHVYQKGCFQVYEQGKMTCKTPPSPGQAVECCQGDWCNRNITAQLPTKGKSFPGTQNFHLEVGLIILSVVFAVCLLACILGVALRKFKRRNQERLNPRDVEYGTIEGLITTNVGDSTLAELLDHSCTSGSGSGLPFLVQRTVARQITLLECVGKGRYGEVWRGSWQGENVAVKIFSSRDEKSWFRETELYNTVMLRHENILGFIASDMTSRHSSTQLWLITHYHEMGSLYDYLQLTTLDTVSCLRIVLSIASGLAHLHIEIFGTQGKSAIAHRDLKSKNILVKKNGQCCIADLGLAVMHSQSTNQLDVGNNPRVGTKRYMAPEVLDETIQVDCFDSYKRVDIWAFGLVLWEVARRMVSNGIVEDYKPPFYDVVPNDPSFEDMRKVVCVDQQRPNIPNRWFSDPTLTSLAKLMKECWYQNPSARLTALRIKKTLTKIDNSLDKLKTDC

B1: Rm0443, rat anti-ALK2 monoclonal antibody clone #0443 (antibody, V domains shown)
VH: EVQLVESGGGLVQPGRSLKLSCLASGSTFSNYGMKWIRQAPGKGLEWVASISRSSTYIYYADTVKGRFTISRDNARNTLYLQMTSLRSEDTALYYCAAAISTPFYWYFDFWGPGTVVTVSS
VL: EIVLTQSPTTMAASPGEKVTLNCLASSSVSYMTWYQQKSGASPKLWIYGTSNLASGVPNRFSGSGSGTSYSLAISSMEAEDVATYYCLHLTSYPPYTFGAGTKLELK
notes: variable region as in the heavy chain of the chimeric Fab m2 (PDB 7YRU); variable region as in the light chain of the chimeric Fab m2 (PDB 7YRU); Whole rat IgG from the hybridoma; PDB 7YRU holds the rat variable regions on human IgG1 kappa constant regions; source: rat hybridoma, purified from serum-free conditioned medium (protein G column)
Turning to B1, the “IC50 of Rm0443 against ALP activity induced by 300 ng/ml BMP7 in C2C12 cells (endogenous ALK2), day 3” value in test [1] came to 0.017 µg/mL. In addition, the “IC50 of Rm0443 against BMP-specific luciferase reporter activity induced by 300 ng/ml BMP7 in C2C12 cells (endogenous ALK2), overnight” value in test [1] came to 0.216 µg/mL. For the same molecule, the off-rate (koff) (as a rule, a measure of how fast the partners let go of each other) in test [2] was determined as 0.00563 s⁻¹; in test [3] it was 0.00576 s⁻¹. Further, the Kd in test [4] was 5.6 nM; in test [5], 5.1 nM.
